In patent US20030040012A1, “Method of detecting protein-protein interaction” (priority 2000, published 2003):

T1: Npw38 (Homo sapiens, UniProt O60828, W52A)
T1 construct: expressed in transfected cells; host or cells: COS7 (monkey kidney)
T1 sequence (O60828 2-265 W52A): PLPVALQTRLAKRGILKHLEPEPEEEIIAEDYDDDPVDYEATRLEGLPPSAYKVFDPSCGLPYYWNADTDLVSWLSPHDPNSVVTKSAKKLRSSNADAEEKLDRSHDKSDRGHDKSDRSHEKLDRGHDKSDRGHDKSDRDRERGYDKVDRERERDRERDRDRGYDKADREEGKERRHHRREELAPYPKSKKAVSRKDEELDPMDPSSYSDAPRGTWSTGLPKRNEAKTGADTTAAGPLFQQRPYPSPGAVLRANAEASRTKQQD

T2: binding of Npw38 to NpwBP(P2)-GFP (Homo sapiens, UniProt O60828)
T2 construct: expressed in transfected cells; host or cells: COS7 (monkey kidney)
T2 sequence (O60828 1-265): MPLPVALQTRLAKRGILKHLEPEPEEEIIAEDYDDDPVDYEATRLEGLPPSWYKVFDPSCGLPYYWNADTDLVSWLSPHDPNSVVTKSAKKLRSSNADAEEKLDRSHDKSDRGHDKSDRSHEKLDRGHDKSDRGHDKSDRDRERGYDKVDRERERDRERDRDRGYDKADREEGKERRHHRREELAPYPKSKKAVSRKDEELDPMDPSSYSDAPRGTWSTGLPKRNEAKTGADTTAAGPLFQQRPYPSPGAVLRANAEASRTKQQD


What was measured:
Npw38 = target: T1, Npw38; test: Npw38-NpwBP binding detection by intracellular localization of GFP fluorescence in COS7 cells; type: cell-based; settings: expressed in place of HA-Npw38 together with NpwBP-GFP
Description: Monkey kidney-derived, cultured cell COS7 was incubated in a 10% fetal calf serum-containing Dulbecco's modified Eagle's medium (DMEM) in the presence of 5% CO2 at 37° C. COS7 cells of 1=10^5 were placed in a 6-well plate (from Nunk, having a well diameter of 3 cm), and further incubated therein in the presence of 5% CO2 at 37° C. for 22 hours. After the medium was removed, the cell sur were washed with a phosphate buffer solution (PBS), and then further washed with a 50 mM Tris-HCl (pH 7.5)-containing DMEM. To these cells, added was a suspension comprising 1 μl of a plasmid suspension, 0.6 ml of DMEM and 3 μl of TRANSFECTAM™ (from IBF), and incubated in the presence of 5% CO2 at 37° C. for 12 hours. Then, the cells were washed with PBS, and fixed with 4% peraformaldehyde-containing PBS at room temperature for 10 minutes. The thus-fixed cells were washed with PBS, then treated with 0.2% Triton X-100, and thereafter blocked with 5% milk PBS. This was reacted with an anti-HA antibody for 45 minutes, then washed with PBS, and reacted with a rhodamine-binding secondary antibody for 45 minutes. […]
First, pKA1-NpwBP(P1)-GFP or pKA1-NpwBP(P2)-GFP was singly introduced into COS7 cells, and the localization of these fusion proteins in the cells was checked through fluorescence microscopy based on the green fluorescence of GFP as the index thereof. […]

[1] = target: T2, binding of Npw38 to NpwBP(P2)-GFP; test: Detection of binding-inhibitory action on intranuclear localization of NpwBP(P2)-GFP; type: cell-based; settings: COS7 cells, NpwBP of more than NpwBP(P2)-GFP co-expressed along with Npw38 and NpwBP(P2)-GFP
Description: Monkey kidney-derived, cultured cell COS7 was incubated in a 10% fetal calf serum-containing Dulbecco's modified Eagle's medium (DMEM) in the presence of 5% CO2 at 37° C. COS7 cells of 1=10^5 were placed in a 6-well plate (from Nunk, having a well diameter of 3 cm), and further incubated therein in the presence of 5% CO2 at 37° C. for 22 hours. After the medium was removed, the cell sur were washed with a phosphate buffer solution (PBS), and then further washed with a 50 mM Tris-HCl (pH 7.5)-containing DMEM. To these cells, added was a suspension comprising 1 μl of a plasmid suspension, 0.6 ml of DMEM and 3 μl of TRANSFECTAM™ (from IBF), and incubated in the presence of 5% CO2 at 37° C. for 12 hours. Then, the cells were washed with PBS, and fixed with 4% peraformaldehyde-containing PBS at room temperature for 10 minutes. The thus-fixed cells were washed with PBS, then treated with 0.2% Triton X-100, and thereafter blocked with 5% milk PBS. This was reacted with an anti-HA antibody for 45 minutes, then washed with PBS, and reacted with a rhodamine-binding secondary antibody for 45 minutes.
In the system of the above (2), NpwBP of more than NpwBP(P2)-GFP was co-expressed in the cells along with Npw38 and NpwBP(P2)-GFP. In this case, the intranuclear localization of NpwBP(P2)-GFP was inhibited. […]

Row | Molecule | intranuclear localization of the green fluorescence of NpwBP-GFP (Npw38) | intranuclear localization of NpwBP(P2)-GFP [1]
1 | Npw38(W52A): a WW domain variant of Npw38 (protein) MPLPVALQTRLAKRGILKHLEPEPEEEIIAEDYDDDPVDYEATRLEGLPPSAYKVFDPSCGLPYYWNADTDLVSWLSPHDPNSVVTKSAKKLRSSNADAEEKLDRSHDKSDRGHDKSDRSHEKLDRGHDKSDRGHDKSDRDRERGYDKVDRERERDRERDRDRGYDKADREEGKERRHHRREELAPYPKSKKAVSRKDEELDPMDPSSYSDAPRGTWSTGLPKRNEAKTGADTTAAGPLFQQRPYPSPGAVLRANAEASRTKQQD | no intranuclear localization | 
2 | NpwBP: nuclear protein (SEQ ID NO: 2) that binds to Npw38 (protein, listed as Homo sapiens) MGRRSTSSTKSGKFMNPTDQARKEARKRELKKNKKQRMMVRAAVLKMKDPKQIIRDMEKLDEMEFNPVQQPQLNEKVLKDKRKKLRETFERILRLYEKENPDIYKELRKLEVEYEQKRAQLSQYFDAVKNAQHVEVESIPLPDMPHAPSNILIQDIPLPGAQPPSILKKTSAYGPPTRAVSILPLLGHGVPRLPPGRKPPGPPPGPPPPQVVQMYGRKVGFALDLPPRRRDEDMLYSPELAQRGHDDDVSSTSEDDGYPEDMDQDKHDDSTDDSDTDKSDGESDGDEFVHRDNGERDNNEEKKSGLSVRFADMPGKSRKKKKNMKELTPLQAMMLRMAGQEIPEEGREVEEFSEDDDEDDSDDSEAEKQSQKQHKEESHSDGTSTASSQQQAPPQSVPPSQIQAPPMPGPPPLGPPPAPPLRPPGPPTGLPPGPPPGAPPFLRPPGMPGLRGPLPRLLPPGPPPGRPPGPPPGPPPGLPPGPPPRGPPPRLPPPAPPGIPPPRPGMMRPPLVPPLGPAPPGLFPPAPLPNPGVLSAPPNLIQRPKADDTSAATIEKKATATISAKPQITNPKAEITRFVPTALRVRRENKGATAAPQRKSEDDSAVPLAKAAPKSGPSVPVSVQTKDDVYEAFMKEMEGLL |  | inhibited
